Assay results: the nanobody polyreactivity screen of Harvey et al. (2022)

Assay: yeast display, Sf9 membrane polyspecificity reagent, FACS + sequencing; frameworks hold sequencing errors
Summary of the method: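 Galactose induction of a Saccharomyces cerevisiae BJ5465 synthetic nanobody display library ran 36–48 hours. The cells were then stained for 1 hour at 4 °C with 10% biotinylated, detergent-solubilized Sf9 membrane reagent, pulled down on streptavidin microbeads and FACS-sorted into low and high (top ~1%) gates on expression and reagent-binding fluorescence. Labels for polyreactivity follow the gate of origin.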

| Sequence | polyreactivity (PSR sort gate) |
| --- | --- |
| QVQLVESGGGLVQAGGSLRLSCAASGSIFYTYAMGWYRQAPGKERELVATIRVSGVSTYADSVKGRFTISRDNAKNTVYLQMNSLKPEDTAVYYCNKVSFYEPIYWQQGYVLLDYWGQGTQVTVSS | low polyreactivity |
| QVQLVESGGGLVQAGGSLRLSCAASGSIFYVNTMGWYRQAPGKERELVAAISDSSGGTYYADSVKGRFTISRDNAKNTVYLQMNSLKPEDPAVYYCARDSTSHYDSGPYSSPFDYWGQGTQVTVSS | low polyreactivity |
| QVQLVESGGGLVQAGGSLRLSCAASGSIFYVYAMGGYRQAPGKERELVAAISKSGGSTYYADSVKGRFTISRDNAKNTVYLQMNRLKPEDTAVYYCAAYFSYGSIIEDYWGQGTQVTVSS | low polyreactivity |
| QVQLVESGGGLVQAGGSLRLSCAASGSIFYVYAMGWYRQAPGKERELDAGITTSGGSTYYADSVKGRFTISRDNAKNTVYLQMKSLKPEDTAVYYCATRNAFTAGSYNVYYGEYYWGQGTQVTVSS | low polyreactivity |
| QVQLVESGGGLVQAGGSLRLSCAASGSIFYVYAMGWYRQAPGKERELVAAISFSGDTTYYADSVKGRFTISRDNAKNTVYLQMNSLKQEDTAVYYCAAEYYYTWVYQYWEMDYWGQGTQVTVSS | low polyreactivity |
| QVQLVESGGGLVQAGGSLRLSCAASGSIFYVYAMGWYRQAPGKERELVAAITNYADSVKGRFTISRDNAKNTVYLQMNSLKPEDTAVYYCAADWWRVEMDYWGQGTQVTVSS | low polyreactivity |
| QVQLVESGGGLVQAGGSLRLSCAASGSIFYVYAMGWYRQAPGKERELVASISWGDSSTYYADSVKGRFTISRDNAKNTVYLQMNSLKPDDTAVYYCAADEYRQYALYDYWGQGTQVTVSS | low polyreactivity |
| QVQLVESGGGLVQAGGSLRLSCAASGSIFYVYAMGWYRQAPGKERELVATISSSAGSTYYADSVKGRFTISRDNAKNTVYLQMNSLKPEDTAVYYCAVRQIYQTSDHRLQYDYWGQGTQVTVSS | low polyreactivity |
| QVQLVESGGGLVQAGGSLRLSCAASGSIFYVYAMGWYRQAPGNERELVADITTRDGDTYYADSVKGRFTISRDNAKNTVYFQMNSLKPEDTAVYYCAADLNAYPQRAYDYWGQGTQVTVSS | low polyreactivity |
| QVQLVESGGGLVQAGGSLRLSCAASGSIFYWYAMGWYRQAPGKERELVAAIDISDDTYYADSVKGRFTISRDNAKNTVYLQMNSLKPEDTAVYYCAARTTRWFYEYDWGQGTQVTVSS | high polyreactivity |
| QVQLVESGGGLVQAGGSLRLSCAASGSIFYYNAMGWYRQAPGKERELVAAISFRASSTYYADSVKGRFTISRDNAKNTVYLQMNSLKPEDTAVYYCASSHWHYIPRHHPYGDDYCGQGTQVTVSS | low polyreactivity |
| QVQLVESGGGLVQAGGSLRLSCAASGSIFYYNAMGWYRQAPGKERELVAAISWSGGSTYYADSVKGRFTISRDKAKNTVYLQMNSLKPEDTAVYYCNAVGWYTYFYGSRKYNSWGQGTQVTVSS | low polyreactivity |
| QVQLVESGGGLVQAGGSLRLSCAASGSIFYYNAMGWYRQEPGKERELVATITSAVSTNYADSVKGRFTISRDNAKNTVYLQMNSLKPQDTAVYYCAADDYQVQYDYWGQGTQVTVSS | low polyreactivity |
| QVQLVESGGGLVQAGGSLRLSCAASGSIFYYNMGWYRPAPGKERELVAAISGGGGSTFYADSVKGRFTISRDNAKNTVYLQMNSLKPEDTAVYYCAARATTRRKKRMDYWGQGTQVTVSS | high polyreactivity |
| QVQLVESGGGLVQAGGSLRLSCAASGSIFYYYAMGWSRQAPGKERELVAGINSGDSTYYADSVKGRFTISRDNAKNTVYLQMNRLKPEYTAVYYCAASADWWYEYWGQGTEVTVSS | low polyreactivity |
| QVQLVESGGGLVQAGGSLRLSCAASGSIFYYYAMGWYRQAPGKERELVAAINGGDGRTYYADSVKGRFTISRDNGKNTVYLQMNSLKPEDTAVYYCAADWPGYSAYYYWGQGTQVTVSS | low polyreactivity |
| QVQLVESGGGLVQAGGSLRLSCAASGSIFYYYAMGWYRQAPGKERELVAAITSGGSTYYADSVKGRFTISRDNAKNTVYLQMNSLKPEDTAVYYCAAYGYYRGYPFHWYDYWGQGTQVTVSS | high polyreactivity |
| QVQLVESGGGLVQAGGSLRLSCAASGSIFYYYAMGWYRQAPGKERELVAAITVSGGRTYYADSVKGRFTISRDNAKNTVYLQMNSLKPEATAVYYCAAQIYGKYDYWGQGTQVTVSS | low polyreactivity |
| QVQLVESGGGLVQAGGSLRLSCAASGSIFYYYAMGWYRQAPGKERELVADISRSGTSTYYADSVKGRFTISRDNAKNTVYLQMNSLKPEDTAVYYCNVLRVKSITYLMDYWGQGTQVTVSS | high polyreactivity |
| QVQLVESGGGLVQAGGSLRLSCAASGSIFYYYAMGWYRQAPGKERELVADITRDCGTTYYADSVKGRFTISRDNAKNTVYLQMNSLKPEDTAVYYCNARSIVFDWSAGRAKMDYWGQGTQVTVSS | low polyreactivity |
| QVQLVESGGGLVQAGGSLRLSCAASGSIFYYYARGWYRQAPGKERELVAAITSGGRTKYADSVKGRFTISRDNAKNTVNLQMNSLKPEDTAVYYCNARNYGKYRTNDYWGQGTQVTVSS | high polyreactivity |
